{"source": "the supplement of paper PMC7125110", "parents": {"B1": {"name": "glmS ribozyme (parent)", "chain": "AUAAAAGCGCCAGAACUACAGAAAUGUAGUUGACGAGGAGGAGGUUUAUCGAAUUUUCGGCGGAUGCCUCCAAA"}}, "settings_in_all_cases": "with glucosamine-6-phosphate", "key": {"glucosamine-6-phosphate [1]": {"variants_of": "B1", "test": "self-cleavage kobs at 40 uM GlcN6P; higher = faster cleavage; RNA array", "procedure,_shortened": "(§1)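 Weighted Michaelis–Menten fits across concentrations supplied kcat and KM, based on kobs from one- or two-exponential decay fits to normalised per-tile medians. The data came from barcoded ribozyme variants transcribed in situ by E. coli RNA polymerase on sequenced MiSeq chips and tracked at 37 °C by a hybridised Cy3 probe. Glucosamine-6-phosphate (40 μM to 10 mM) in HEPES/KCl/Mg(OAc)2 buffer was flowed in.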"}, "glucosamine-6-phosphate [2]": {"variants_of": "B1", "test": "self-cleavage kobs at 10000 uM GlcN6P; higher = faster cleavage; RNA array", "procedure,_shortened": "as §1"}, "glucosamine-6-phosphate [3]": {"variants_of": "B1", "test": "self-cleavage kobs at 640 uM GlcN6P; higher = faster cleavage; RNA array", "procedure,_shortened": "as §1"}, "glucosamine-6-phosphate [4]": {"variants_of": "B1", "test": "self-cleavage kobs at 2500 uM GlcN6P; higher = faster cleavage; RNA array", "procedure,_shortened": "as §1"}, "glucosamine-6-phosphate [5]": {"variants_of": "B1", "test": "self-cleavage kobs at 160 uM GlcN6P; higher = faster cleavage; RNA array", "procedure,_shortened": "as §1"}}, "note": "± gives the standard error. This sample holds only a part of the variants without activity.", "data": [{"variant": "G40A G60A U69A", "values": [{"measurement": "self-cleavage kobs at 40 uM GlcN6P", "setting": "glucosamine-6-phosphate [1]", "value": "< 1e-05", "unit": "s⁻¹"}]}, {"variant": "A39G G40A A53C", "values": [{"measurement": "self-cleavage kobs at 40 uM GlcN6P", "setting": "glucosamine-6-phosphate [1]", "value": "3.7e-05 ± 1.8e-05", "unit": "s⁻¹"}, {"measurement": "self-cleavage kobs at 10000 uM GlcN6P", "setting": "glucosamine-6-phosphate [2]", "value": "0.00139 ± 0.00041", "unit": "s⁻¹"}]}, {"variant": "C11A A14U A15G G29A G44U C61A", "values": [{"measurement": "self-cleavage kobs at 40 uM GlcN6P", "setting": "glucosamine-6-phosphate [1]", "value": "< 1e-05", "unit": "s⁻¹"}, {"measurement": "self-cleavage kobs at 640 uM GlcN6P", "setting": "glucosamine-6-phosphate [3]", "value": "< 1e-05", "unit": "s⁻¹"}, {"measurement": "self-cleavage kobs at 2500 uM GlcN6P", "setting": "glucosamine-6-phosphate [4]", "value": "< 1e-05", "unit": "s⁻¹"}, {"measurement": "self-cleavage kobs at 10000 uM GlcN6P", "setting": "glucosamine-6-phosphate [2]", "value": "< 1e-05", "unit": "s⁻¹"}]}, {"variant": "A36U G37C G41C U55G", "values": [{"measurement": "self-cleavage kobs at 40 uM GlcN6P", "setting": "glucosamine-6-phosphate [1]", "value": "< 1e-05", "unit": "s⁻¹"}, {"measurement": "self-cleavage kobs at 640 uM GlcN6P", "setting": "glucosamine-6-phosphate [3]", "value": "< 1e-05", "unit": "s⁻¹"}, {"measurement": "self-cleavage kobs at 10000 uM GlcN6P", "setting": "glucosamine-6-phosphate [2]", "value": "< 1e-05", "unit": "s⁻¹"}]}, {"variant": "G13C U49G G60U C70G", "values": [{"measurement": "self-cleavage kobs at 40 uM GlcN6P", "setting": "glucosamine-6-phosphate [1]", "value": "< 1e-05", "unit": "s⁻¹"}]}, {"variant": "C8G U46G", "values": [{"measurement": "self-cleavage kobs at 40 uM GlcN6P", "setting": "glucosamine-6-phosphate [1]", "value": "< 1e-05", "unit": "s⁻¹"}, {"measurement": "self-cleavage kobs at 160 uM GlcN6P", "setting": "glucosamine-6-phosphate [5]", "value": "< 1e-05", "unit": "s⁻¹"}, {"measurement": "self-cleavage kobs at 640 uM GlcN6P", "setting": "glucosamine-6-phosphate [3]", "value": "< 1e-05", "unit": "s⁻¹"}, {"measurement": "self-cleavage kobs at 2500 uM GlcN6P", "setting": "glucosamine-6-phosphate [4]", "value": "< 1e-05", "unit": "s⁻¹"}, {"measurement": "self-cleavage kobs at 10000 uM GlcN6P", "setting": "glucosamine-6-phosphate [2]", "value": "< 1e-05", "unit": "s⁻¹"}]}, {"variant": "C11U C50G", "values": [{"measurement": "self-cleavage kobs at 40 uM GlcN6P", "setting": "glucosamine-6-phosphate [1]", "value": "0.000107 ± 2.2e-05", "unit": "s⁻¹"}, {"measurement": "self-cleavage kobs at 160 uM GlcN6P", "setting": "glucosamine-6-phosphate [5]", "value": "0.000271 ± 6.5e-05", "unit": "s⁻¹"}, {"measurement": "self-cleavage kobs at 640 uM GlcN6P", "setting": "glucosamine-6-phosphate [3]", "value": "0.000371 ± 9e-05", "unit": "s⁻¹"}, {"measurement": "self-cleavage kobs at 2500 uM GlcN6P", "setting": "glucosamine-6-phosphate [4]", "value": "0.000104 ± 2.1e-05", "unit": "s⁻¹"}]}, {"variant": "A12C U45G", "values": [{"measurement": "self-cleavage kobs at 40 uM GlcN6P", "setting": "glucosamine-6-phosphate [1]", "value": "0.000128 ± 4.1e-05", "unit": "s⁻¹"}, {"measurement": "self-cleavage kobs at 10000 uM GlcN6P", "setting": "glucosamine-6-phosphate [2]", "value": "0.012 ± 0.004", "unit": "s⁻¹"}]}, {"variant": "A36C A39C C58U C61A C71A", "values": [{"measurement": "self-cleavage kobs at 40 uM GlcN6P", "setting": "glucosamine-6-phosphate [1]", "value": "< 1e-05", "unit": "s⁻¹"}]}, {"variant": "C11A G40A", "values": [{"measurement": "self-cleavage kobs at 40 uM GlcN6P", "setting": "glucosamine-6-phosphate [1]", "value": "< 1e-05", "unit": "s⁻¹"}, {"measurement": "self-cleavage kobs at 160 uM GlcN6P", "setting": "glucosamine-6-phosphate [5]", "value": "< 1e-05", "unit": "s⁻¹"}, {"measurement": "self-cleavage kobs at 10000 uM GlcN6P", "setting": "glucosamine-6-phosphate [2]", "value": "3.6e-05 ± 1.4e-05", "unit": "s⁻¹"}]}, {"variant": "C16A G44C", "values": [{"measurement": "self-cleavage kobs at 40 uM GlcN6P", "setting": "glucosamine-6-phosphate [1]", "value": "< 1e-05", "unit": "s⁻¹"}, {"measurement": "self-cleavage kobs at 160 uM GlcN6P", "setting": "glucosamine-6-phosphate [5]", "value": "< 1e-05", "unit": "s⁻¹"}, {"measurement": "self-cleavage kobs at 640 uM GlcN6P", "setting": "glucosamine-6-phosphate [3]", "value": "< 1e-05", "unit": "s⁻¹"}, {"measurement": "self-cleavage kobs at 10000 uM GlcN6P", "setting": "glucosamine-6-phosphate [2]", "value": "< 1e-05", "unit": "s⁻¹"}]}, {"variant": "G9C U56G", "values": [{"measurement": "self-cleavage kobs at 40 uM GlcN6P", "setting": "glucosamine-6-phosphate [1]", "value": "< 1e-05", "unit": "s⁻¹"}, {"measurement": "self-cleavage kobs at 160 uM GlcN6P", "setting": "glucosamine-6-phosphate [5]", "value": "< 1e-05", "unit": "s⁻¹"}, {"measurement": "self-cleavage kobs at 640 uM GlcN6P", "setting": "glucosamine-6-phosphate [3]", "value": "< 1e-05", "unit": "s⁻¹"}, {"measurement": "self-cleavage kobs at 2500 uM GlcN6P", "setting": "glucosamine-6-phosphate [4]", "value": "< 1e-05", "unit": "s⁻¹"}, {"measurement": "self-cleavage kobs at 10000 uM GlcN6P", "setting": "glucosamine-6-phosphate [2]", "value": "< 1e-05", "unit": "s⁻¹"}]}, {"variant": "C11U U47A A52C", "values": [{"measurement": "self-cleavage kobs at 40 uM GlcN6P", "setting": "glucosamine-6-phosphate [1]", "value": "< 1e-05", "unit": "s⁻¹"}]}, {"variant": "A42G U56A G60U", "values": [{"measurement": "self-cleavage kobs at 40 uM GlcN6P", "setting": "glucosamine-6-phosphate [1]", "value": "< 1e-05", "unit": "s⁻¹"}, {"measurement": "self-cleavage kobs at 2500 uM GlcN6P", "setting": "glucosamine-6-phosphate [4]", "value": "< 1e-05", "unit": "s⁻¹"}, {"measurement": "self-cleavage kobs at 10000 uM GlcN6P", "setting": "glucosamine-6-phosphate [2]", "value": "< 1e-05", "unit": "s⁻¹"}]}, {"variant": "G13U C50G C61G", "values": [{"measurement": "self-cleavage kobs at 40 uM GlcN6P", "setting": "glucosamine-6-phosphate [1]", "value": "8.16e-05 ± 1.3e-05", "unit": "s⁻¹"}, {"measurement": "self-cleavage kobs at 10000 uM GlcN6P", "setting": "glucosamine-6-phosphate [2]", "value": "0.000116 ± 1.9e-05", "unit": "s⁻¹"}]}, {"variant": "G35C U69A C70G", "values": [{"measurement": "self-cleavage kobs at 40 uM GlcN6P", "setting": "glucosamine-6-phosphate [1]", "value": "< 1e-05", "unit": "s⁻¹"}]}, {"variant": "G37C A39G C50U", "values": [{"measurement": "self-cleavage kobs at 40 uM GlcN6P", "setting": "glucosamine-6-phosphate [1]", "value": "< 1e-05", "unit": "s⁻¹"}]}, {"variant": "C10A C11U U69G", "values": [{"measurement": "self-cleavage kobs at 40 uM GlcN6P", "setting": "glucosamine-6-phosphate [1]", "value": "4.43e-05 ± 2.1e-05", "unit": "s⁻¹"}, {"measurement": "self-cleavage kobs at 10000 uM GlcN6P", "setting": "glucosamine-6-phosphate [2]", "value": "5.88e-05 ± 1.5e-05", "unit": "s⁻¹"}]}, {"variant": "C11G U45A", "values": [{"measurement": "self-cleavage kobs at 40 uM GlcN6P", "setting": "glucosamine-6-phosphate [1]", "value": "< 1e-05", "unit": "s⁻¹"}]}, {"variant": "C10U G32A G51C C67U C71U", "values": [{"measurement": "self-cleavage kobs at 40 uM GlcN6P", "setting": "glucosamine-6-phosphate [1]", "value": "< 1e-05", "unit": "s⁻¹"}, {"measurement": "self-cleavage kobs at 2500 uM GlcN6P", "setting": "glucosamine-6-phosphate [4]", "value": "< 1e-05", "unit": "s⁻¹"}]}, {"variant": "G38A C50U A53G G62U", "values": [{"measurement": "self-cleavage kobs at 40 uM GlcN6P", "setting": "glucosamine-6-phosphate [1]", "value": "< 1e-05", "unit": "s⁻¹"}]}, {"variant": "A6C G9U U47G", "values": [{"measurement": "self-cleavage kobs at 40 uM GlcN6P", "setting": "glucosamine-6-phosphate [1]", "value": "< 1e-05", "unit": "s⁻¹"}, {"measurement": "self-cleavage kobs at 2500 uM GlcN6P", "setting": "glucosamine-6-phosphate [4]", "value": "< 1e-05", "unit": "s⁻¹"}, {"measurement": "self-cleavage kobs at 10000 uM GlcN6P", "setting": "glucosamine-6-phosphate [2]", "value": "< 1e-05", "unit": "s⁻¹"}]}, {"variant": "G35C G41U G51C", "values": [{"measurement": "self-cleavage kobs at 40 uM GlcN6P", "setting": "glucosamine-6-phosphate [1]", "value": "< 1e-05", "unit": "s⁻¹"}, {"measurement": "self-cleavage kobs at 2500 uM GlcN6P", "setting": "glucosamine-6-phosphate [4]", "value": "< 1e-05", "unit": "s⁻¹"}]}, {"variant": "A53G G60U", "values": [{"measurement": "self-cleavage kobs at 40 uM GlcN6P", "setting": "glucosamine-6-phosphate [1]", "value": "< 1e-05", "unit": "s⁻¹"}, {"measurement": "self-cleavage kobs at 160 uM GlcN6P", "setting": "glucosamine-6-phosphate [5]", "value": "< 1e-05", "unit": "s⁻¹"}, {"measurement": "self-cleavage kobs at 640 uM GlcN6P", "setting": "glucosamine-6-phosphate [3]", "value": "< 1e-05", "unit": "s⁻¹"}]}, {"variant": "G29C C50G", "values": [{"measurement": "self-cleavage kobs at 40 uM GlcN6P", "setting": "glucosamine-6-phosphate [1]", "value": "5.44e-05 ± 1.3e-05", "unit": "s⁻¹"}, {"measurement": "self-cleavage kobs at 160 uM GlcN6P", "setting": "glucosamine-6-phosphate [5]", "value": "0.000194 ± 5.9e-05", "unit": "s⁻¹"}, {"measurement": "self-cleavage kobs at 640 uM GlcN6P", "setting": "glucosamine-6-phosphate [3]", "value": "0.000208 ± 4.9e-05", "unit": "s⁻¹"}, {"measurement": "self-cleavage kobs at 2500 uM GlcN6P", "setting": "glucosamine-6-phosphate [4]", "value": "0.000178 ± 3.6e-05", "unit": "s⁻¹"}, {"measurement": "self-cleavage kobs at 10000 uM GlcN6P", "setting": "glucosamine-6-phosphate [2]", "value": "2.54e-05 ± 1.1e-05", "unit": "s⁻¹"}]}, {"variant": "C10U G44U U45A G59C C67G", "values": [{"measurement": "self-cleavage kobs at 40 uM GlcN6P", "setting": "glucosamine-6-phosphate [1]", "value": "< 1e-05", "unit": "s⁻¹"}, {"measurement": "self-cleavage kobs at 10000 uM GlcN6P", "setting": "glucosamine-6-phosphate [2]", "value": "< 1e-05", "unit": "s⁻¹"}]}]}
